Source: patent US20050227296A1, “Method for indentifying integrin antagonists” (The General Hospital Corporation, a Massachusetts …, priority 1988, published 2005)

Legend:
EAC3b = EAC3b (Homo sapiens, UniProt P01024); assay: Erythrocyte binding assay, EAC3b on immobilized protein
Method: Erythrocytes (E) coated with rabbit anti-E IgM (EA) or C3b (EAC3b) were prepared as described by Dana et al. (J. Immunol. 73:153, 1984). EAiC3b (erythrocytes coated with iC3b) were generated by treating EAC3b with purified human factors H and I, or alternatively prepared from EA using C5-deficient human serum (Sigma Chemical Co., St. Louis, Mo.). EAiC3b cells were washed and stored in isotonic veronal-buffered saline (VBS^2+), pH 7.4, containing 0.15 mM calcium-1 mM magnesium (MgCl2+CaCl2) and 1 mg/ml Soybean Trypsin Inhibitor (STI; Worthington Biochemical Co., Freehold, N.J.) at 1.5×10^8 cells/ml. […]
Immobilization of recombinant proteins and peptides: Purified recombinant A-domain was added to Immulon-2 96-well microtiter plates (Dynatech) overnight. […] Binding of the anti-CD11b mabs to the coated rA-domain was measured by ELISA and read using a plate reader (Molecular Dynamics).
Erythrocyte binding assays: Fluoresceinated EAiC3b, EAC3b or EA were resuspended to 1.5×10^8/ml in buffer A, and added […] to wells containing immobilized proteins or peptides in a total volume of 100 ml. […] Fluorescence was quantified (excitatory wavelength, 490 nm, emission wavelength, 510 nm) using a SLM 8000 fluorometer (SLM Instruments, Urbana, Ill.). […] The effect of temperature was evaluated in the presence of 1 mM MnCl2 at 37° C. and at 4° C.

[1] = target: CR3 (CD11b/CD18) expressed by normal human neutrophils (Homo sapiens, UniProt P11215); assay: EAiC3b binding to adherent neutrophils (CR3); format: cell-based
Method: Purification and adherence of human neutrophils: Neutrophils were purified as described by Boyum et al. (Scand. J. Clin. Lab. Med. 97(suppl.):77, 1968), resuspended in divalent-cation-free Tris-HCl-saline buffer, pH 7.4 at 5×10^7/ml and kept on ice until used. Neutrophils (2×10^5 cells/well) were allowed to adhere to 96-well plates in Iscov's Modified Medium for one hour at 37° C., in a humidified incubator with 5% CO2. The wells were then washed, and […] of fluoresceinated EAiC3b or EA (at 1.5×10^8/ml) were added in the presence of 3% BSA, in a total volume of […], followed by 15 min incubation at 37° C. with 5% CO2. Wells were then washed and fluorescence quantified as described above.
The ability of A7 to inhibit EAiC3b binding to CR3 (CD11b/CD18) expressed by normal human neutrophils was measured under conditions similar to those used in assessing EAiC3b binding to rA-domain. EAiC3b binding to neutrophils is primarily mediated by CR3, but can also occur in vitro through complement receptor type 1 (CR1). The effect of A7 on EAiC3b binding was tested in nearly isotonic conditions and in the presence of blocking concentrations of a polyclonal anti-CR1 antibody (Ross et al., J. Exp. Med. 158:334, 1983). […] These findings indicate that A7 is the major site in CR3 responsible for its interaction with iC3b.

gelatin = assay: A domain binding to gelatin

EAC3b, sequence (P01024 749-1663 limits assumed): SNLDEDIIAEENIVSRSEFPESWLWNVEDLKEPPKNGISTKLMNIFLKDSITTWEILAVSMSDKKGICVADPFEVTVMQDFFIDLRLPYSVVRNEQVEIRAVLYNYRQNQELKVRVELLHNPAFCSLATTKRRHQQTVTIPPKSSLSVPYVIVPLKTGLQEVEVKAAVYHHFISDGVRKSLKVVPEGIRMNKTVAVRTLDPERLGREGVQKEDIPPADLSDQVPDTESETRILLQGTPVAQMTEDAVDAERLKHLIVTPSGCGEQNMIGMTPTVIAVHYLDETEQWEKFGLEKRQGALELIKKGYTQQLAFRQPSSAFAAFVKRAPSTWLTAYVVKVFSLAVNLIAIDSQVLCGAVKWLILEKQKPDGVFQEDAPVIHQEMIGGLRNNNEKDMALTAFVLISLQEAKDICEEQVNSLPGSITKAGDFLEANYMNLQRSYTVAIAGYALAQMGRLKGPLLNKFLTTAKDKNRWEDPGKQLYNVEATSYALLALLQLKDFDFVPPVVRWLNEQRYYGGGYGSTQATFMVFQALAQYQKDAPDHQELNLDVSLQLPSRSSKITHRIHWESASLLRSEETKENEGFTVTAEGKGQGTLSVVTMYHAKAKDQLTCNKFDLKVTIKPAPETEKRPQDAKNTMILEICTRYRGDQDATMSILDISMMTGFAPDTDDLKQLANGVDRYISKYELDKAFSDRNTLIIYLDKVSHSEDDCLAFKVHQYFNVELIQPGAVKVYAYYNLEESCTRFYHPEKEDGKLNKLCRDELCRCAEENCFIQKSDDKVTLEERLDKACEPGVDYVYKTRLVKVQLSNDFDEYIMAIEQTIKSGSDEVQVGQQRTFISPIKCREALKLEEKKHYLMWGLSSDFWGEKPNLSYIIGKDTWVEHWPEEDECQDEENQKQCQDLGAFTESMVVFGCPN
EAC3b, sequence (P01024 23-667 partner limits assumed): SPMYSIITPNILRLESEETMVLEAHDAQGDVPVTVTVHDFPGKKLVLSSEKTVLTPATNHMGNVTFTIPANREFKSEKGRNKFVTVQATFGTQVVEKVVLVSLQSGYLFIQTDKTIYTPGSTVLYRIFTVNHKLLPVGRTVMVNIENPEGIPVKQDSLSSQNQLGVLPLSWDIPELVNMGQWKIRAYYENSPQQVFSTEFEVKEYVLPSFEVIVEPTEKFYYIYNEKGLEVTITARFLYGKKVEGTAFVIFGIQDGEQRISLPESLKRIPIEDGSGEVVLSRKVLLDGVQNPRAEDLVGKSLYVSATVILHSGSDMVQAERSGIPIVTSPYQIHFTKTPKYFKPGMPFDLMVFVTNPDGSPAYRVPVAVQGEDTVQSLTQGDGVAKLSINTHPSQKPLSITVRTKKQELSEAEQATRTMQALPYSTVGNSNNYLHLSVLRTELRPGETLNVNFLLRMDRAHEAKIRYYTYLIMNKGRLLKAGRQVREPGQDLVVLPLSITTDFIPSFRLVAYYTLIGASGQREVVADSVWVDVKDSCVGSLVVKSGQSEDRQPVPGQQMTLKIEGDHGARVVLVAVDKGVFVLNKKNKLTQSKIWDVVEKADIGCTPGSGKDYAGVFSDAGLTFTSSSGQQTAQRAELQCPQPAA

Question: With “r11bA: recombinant human CD11b A domain (Cys128 to Glu321), expressed as GST fusion protein, used as such or after thrombin cleavage” as the substance, how does the “binding of EAC3b to immobilized protein” value (EAC3b) read?
Answer: not

Question: What about the “concentrations required for inhibition of iC3b binding to leukocytes” value [1] of the same substance?
Answer: micromolar concentrations

Question: And the “binding of the A domain to gelatin” value (gelatin)?
Answer: binds
